± gives the uncertainty stated by the source.

The data set can be described thus: amyloid nucleation score (Sup35N fusion, yeast selection) (log enrichment); library NNK2; higher = more nucleation; inactive = no reads after selection. In short, it runs like this: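 Output and input plasmid inserts were sequenced by Illumina after psi-negative yeast carrying Sup35N fused to peptides of 20 random codons had been induced 24 hours with 100 μM copper sulfate and grown 7 days at 30°C on medium lacking adenine and uracil. The nucleation score is the DiMSum log enrichment of output over input reads, centred on the mode score of non-aggregating sequences. Sequences with under 100 input reads were excluded.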
For the substance QSVYFILNNFKWFPGSTGM, the amyloid nucleation score worked out at 7.062 ± 0.048.

As for FTAMNIGNACMESQALPWNL, the amyloid nucleation score amounted to 0.198 ± 0.65.

For the substance TWFAHQMWCFSILQFITLKS, the amyloid nucleation score is 0.867 ± 0.32.

For YMRSWEVLNMCGVSWLCIFA, the amyloid nucleation score was 7.419 ± 0.064.

With KLLFCERGKSGSNQSSLTKT, the amyloid nucleation score was -0.523 ± 0.54.

Substance CGRWVSGAWDGCGCGLGVLG yielded an amyloid nucleation score of -0.305 ± 0.55.

ELLQVEYNHHDSKEFMLVMI registered an amyloid nucleation score of 0.239 ± 0.43.

In the case of HSNPYRKLIQLTMTGITGTV, the amyloid nucleation score stood at 0.033 ± 0.48.

ALKFHGSNDSRFLI yielded an amyloid nucleation score of -0.756 ± 1.

With FFVESRSCSGYKMMKRCLDV, the amyloid nucleation score came out at 1.54 ± 0.15.

VIIGIFCNSKSS: the amyloid nucleation score was 4.33 ± 0.1.

The substance YNSVKLLEGPFLCSSLTGS came in with an amyloid nucleation score of 0.444 ± 0.6.

On to TDLWSNYLSGNLVENFITCL, for which the amyloid nucleation score is -1.96 ± 1.1.

With VHQRYRSVRCWNWIVM, the amyloid nucleation score is -0.545 ± 0.48.

On to VCCKLEFVSKHFRCVNGCDE, for which the amyloid nucleation score came to 9.264 ± 0.055.

As for IYRCIYRTPMLLGLYFNGPV, the amyloid nucleation score was -0.791 ± 0.55.

As for TVWCWVDRTMGLEWTYLTA, the amyloid nucleation score was 1.1 ± 0.23.

For TVSRIMLGNGKYFKHVL, the amyloid nucleation score came out at 2.3 ± 0.064.

The substance FVCPFVVCYAGIGGRGGYVM displayed an amyloid nucleation score of 0.173 ± 1.1.

In turn, YVCLRRWNWRMKLTCVSKLG registered an amyloid nucleation score of 0.734 ± 0.35.

YYVWVI had an amyloid nucleation score of -0.698 ± 0.78.

In turn, SSSDFEFSHVIKGAIFRLFT registered an amyloid nucleation score of -1.2 ± 1.

For the substance NVLGSRLKLMNEGIDLALIK, the amyloid nucleation score is 6.38 ± 0.069.

VLNGNLSFLSAVWFGKM yielded an amyloid nucleation score of 6.729 ± 0.053.

The substance YKRRRWRVENRNGVSFSHTD yielded an amyloid nucleation score of 0.806 ± 0.3.

RMRFYWWDVSMLYTCSYSDF showed an amyloid nucleation score of 1.04 ± 0.11.

In the case of SICGEVYWWNLG, the amyloid nucleation score is -0.978 ± 0.28.

In turn, FIWSYVLSRGSV had an amyloid nucleation score of -1.03 ± 0.31.

For IRTLMYISHSAGGYLL, the amyloid nucleation score was -0.576 ± 0.44.

VCFYPECVWQSILVLDFHVG yielded an amyloid nucleation score of 3.42 ± 0.079.

In the case of MYRPINFITCSVRMFVVIVC, the amyloid nucleation score entry is “inactive”.

The substance QNLSSLFKVYGTSSC gave an amyloid nucleation score of -0.953 ± 0.38.

Substance TWNISILHCI displayed an amyloid nucleation score of 4.84 ± 0.084.

The substance EPGRRSYSWFCITRVFVMR displayed an amyloid nucleation score of -0.171 ± 1.

In the case of TSGFSIIRVIVNYIYALETR, the amyloid nucleation score was found to be 3.86 ± 0.12.

The substance KNKQRYSPIITLLVTKSVAF registered an amyloid nucleation score of 2.67 ± 0.056.

Take ISQRNRSIAYYKMSLTRYGF: the amyloid nucleation score entry was “inactive”.

VRWTRILVLIMFYAMSSTGT: the amyloid nucleation score is 2.65 ± 0.073.

TTLYGNSRFTVCMTKGW: the amyloid nucleation score was -0.271 ± 0.74.

In turn, GDKYCGLEPYGMGHNHMYAL gave an amyloid nucleation score of 0.546 ± 0.56.

Consider VLMEWTLGVTHDNISDDYSD, for which the amyloid nucleation score is 2.58 ± 0.082.

In turn, QGKNAFAGLGYMSHKRRMWG gave an amyloid nucleation score of 0.686 ± 0.39.

Take IYIGLCLRDYILDNMALMRQ: the amyloid nucleation score is -0.721 ± 0.32.

CRFIRFHYLGYNLGSHHIYI showed an amyloid nucleation score of -0.902 ± 0.78.

For the substance SMWWY, the amyloid nucleation score was -0.505 ± 1.1.

LGSYVACPRDTKDYQNNSMC came in with an amyloid nucleation score of -0.877 ± 0.48.

PFSCITRLQ: the amyloid nucleation score was 2.48 ± 0.1.

On to SLFARRMWGGTVKWYNDRTY, for which the amyloid nucleation score is -0.632 ± 0.76.

For KTYGGLLSLPVVLRMLEPRA, the amyloid nucleation score came out at 0.319 ± 0.61.

VLRGSFKGFFYRWIKCGFEW came in with an amyloid nucleation score of -1.24 ± 0.64.

Consider QYSYGWHLRTIRIRRTCTGS, for which the amyloid nucleation score came to 1.15 ± 0.31.

Turning to VFSCYSVQHRRLSWMSCD, the amyloid nucleation score is -0.385 ± 0.41.

QIASYDFCHRVGRMGPTVCV gave an amyloid nucleation score of -0.165 ± 0.54.

FFYWLAMIW registered an amyloid nucleation score of -0.582 ± 0.63.

As for VWTSIYDFSLWADYGQK, the amyloid nucleation score was -1.58 ± 1.1.

In turn, ALNSPFMLQFLDWL came in with an amyloid nucleation score of 0.11 ± 0.76.

WGDIDF yielded an amyloid nucleation score of -0.385 ± 0.64.

The substance MVCVELFWFARLSLPGA came in with an amyloid nucleation score of 0.246 ± 1.1.

NASTRSGNYQFARHGLGYRR returned an amyloid nucleation score of 1.44 ± 0.17.

Substance IVRELAVVLKKFYLFALFLR had an amyloid nucleation score of -0.882 ± 0.62.

In turn, WCIFL gave an amyloid nucleation score of 4.87 ± 0.087.

For RSSRW, the amyloid nucleation score amounted to 2.82 ± 0.1.

YYSYYWQTNHID: the amyloid nucleation score is -1.68 ± 0.62.

DSGRCFSFKWFCYFQHHHEV: the amyloid nucleation score was determined as 2.18 ± 0.17.

The substance FGYLVIKFVTYVRRRTNTYN yielded an amyloid nucleation score of -0.113 ± 0.56.

Substance SMFIVHSCSTWLTNNGLNHM showed an amyloid nucleation score of 3.19 ± 0.16.

As to AGLRGIHEIGLLDAKWDDNH, the amyloid nucleation score result is “inactive”.

Turning to QLHSLKKKRKY, the amyloid nucleation score was -0.625 ± 0.28.

Consider KHGSMVICKPAIYTVLT, for which the amyloid nucleation score was -0.021 ± 0.63.

Consider KLIMFCDMLKVRSNNFRSRK, for which the amyloid nucleation score was 5.55 ± 0.077.

Take AAILFSGDVLCLLRCYIAIK: the amyloid nucleation score is -0.291 ± 0.74.

MAGLTSWCGPHHTVWLTWNG: the amyloid nucleation score was found to be 0.939 ± 0.3.

As to TLGPL, the amyloid nucleation score result was “inactive”.

As for VCNFLYNGLEFVNLECFWR, the amyloid nucleation score entry was “inactive”.

DMMCLLFGAKFNVQTGTHS registered an amyloid nucleation score of 5.231 ± 0.052.

As to RCTGDLGRVARFWYETVKLN, the amyloid nucleation score is -0.066 ± 0.39.

Substance RVIWSPSRDRSSWFTESEYH gave an amyloid nucleation score of -0.278 ± 0.36.

In turn, LPIDVSNVGTFVEWIFFAIR showed an amyloid nucleation score of -1.5 ± 0.54.

AMLLNILVPYVYSKTGRGPV displayed an amyloid nucleation score of 1.88 ± 0.33.

For the substance GFRNCWKWPHWVLAPMLYNS, the amyloid nucleation score was found to be 0.007 ± 1.1.

LTSGQEGG showed an amyloid nucleation score of 0.047 ± 0.45.

VYVFYVSIKVAVFTLTM returned an amyloid nucleation score of 3.92 ± 0.041.

For the substance FYGGDA, the amyloid nucleation score came out at 0.005 ± 0.39.

Consider EVMCDAKLAGCVTSRPWLSR, for which the amyloid nucleation score was 0.925 ± 0.34.

Substance CNFEHFFYKVFRFLQWTVYE returned an amyloid nucleation score of -0.153 ± 1.1.

Substance VSLYRKGSASKEGGLERATD came in with an amyloid nucleation score of 0.55 ± 0.3.

The substance RVIWRQWYNTL yielded an amyloid nucleation score of 1.61 ± 0.19.

Take ILGSARYIVCGQVSEMRSAG: the amyloid nucleation score came out at 0.367 ± 0.49.

As for VIFSGFFYISPTADPHDSFI, the amyloid nucleation score result is “inactive”.

Substance DLGAFRLRR showed an amyloid nucleation score of -2.19 ± 0.54.

In turn, LIEVQGSFYIVSALIGYRCG registered an amyloid nucleation score of 0.414 ± 0.21.

SYVSIWLACWLISFNWSGNG gave an amyloid nucleation score of 0.713 ± 0.58.

In the case of CSDCDSRMC, the amyloid nucleation score is -0.41 ± 0.42.

The substance RCLVREISNPDGSDSIIWLR showed an amyloid nucleation score of -0.574 ± 0.55.

VGPFSDH came in with an amyloid nucleation score of -0.472 ± 0.79.

On to IRHNVKRLGATNVW, for which the amyloid nucleation score is -0.09 ± 0.76.

The substance SSSEVSFSCYVVDVQLS displayed an amyloid nucleation score of -0.603 ± 0.49.

RHTSMSGCMTVIMTGCEIPR returned an amyloid nucleation score of 1.13 ± 0.39.

As to CVFASNKRMEGVDKKLRVRN, the amyloid nucleation score worked out at 0.403 ± 0.62.

In turn, YLSLVKSPLSSLNSFWTWM returned an amyloid nucleation score of -0.348 ± 0.23.

Substance DWCTAAGDEMDMVVGGKVPN returned an amyloid nucleation score of 0.427 ± 0.34.

NGDVTVMITF: the amyloid nucleation score worked out at 5.463 ± 0.031.

DYGEGLPNSMCCLVSFQ displayed an amyloid nucleation score of 0.057 ± 1.1.

Consider NNVANW, for which the amyloid nucleation score is 0.569 ± 0.48.

With LLLCGNSRGQDEASSIVFTM, the amyloid nucleation score worked out at 0.726 ± 0.66.

NYSYMENYICQLACKTGEAG showed an amyloid nucleation score of 5.88 ± 0.084.

Regarding RKLTIA, the amyloid nucleation score is -0.887 ± 0.42.

In turn, VLNIARVRHDKG showed an amyloid nucleation score of 3.7 ± 0.051.

For the substance AETLPFWGNG, the amyloid nucleation score amounted to 0.695 ± 0.57.

SLLDWYKSRQSLMGAMLHNC registered an amyloid nucleation score of -1.12 ± 0.44.

Regarding ILWPLHVWYVICYRSNMWSY, the amyloid nucleation score turned out to be 5.27 ± 0.077.

For GNKCLSWVES, the amyloid nucleation score is -0.12 ± 0.23.

As for CDSWWYFSNKANSLWSKCSA, the amyloid nucleation score was -0.723 ± 0.35.

SWRENFGWGICCSTVWPRCR came in with an amyloid nucleation score of 1.86 ± 0.21.

For IIILYCGRYLINWTFLSCAY, the amyloid nucleation score result was “inactive”.

For the substance RFTALADGYRFTLSLGIVSG, the amyloid nucleation score was 2.28 ± 0.12.

For the substance TLNLDFFELSMPGDFSDLVS, the amyloid nucleation score result is “inactive”.

On to DYLIAIQLYDFYVHGLIKYR, for which the amyloid nucleation score is -0.853 ± 0.78.

As to IRSNLTKKHLKIL, the amyloid nucleation score is -0.994 ± 0.63.

In the case of SWYLFGPDR, the amyloid nucleation score is -0.433 ± 0.54.

Turning to NLKRMFYVGCSIVSRKLIGR, the amyloid nucleation score was -0.095 ± 0.5.

Turning to CELRIFTCHDSCAVLDRWME, the amyloid nucleation score was found to be 1.16 ± 0.18.

As to FECKCKVYTPAWGCHQYLIL, the amyloid nucleation score entry is “inactive”.

ALSSFIGVRNLQAQGHFTQI gave an amyloid nucleation score of 0.638 ± 0.36.

As to ECLTLFRTGRM, the amyloid nucleation score is 5.306 ± 0.037.

With FVDWVMCIVMYVRLR, the amyloid nucleation score was -0.87 ± 0.41.

Consider TQCSLRLKFTCYAMRSFGQY, for which the amyloid nucleation score turned out to be 5.02 ± 0.096.

LGRLIWTRVSYCMSQINRVR yielded an amyloid nucleation score of 2.23 ± 0.061.

For ANGVSILDFRKHATFWWWET, the amyloid nucleation score was -0.103 ± 0.29.

Regarding YQNIFLRTAALRAGSAD, the amyloid nucleation score came to 0.765 ± 0.24.

AFRVNWYDQNRYVEVKG came in with an amyloid nucleation score of 0.292 ± 0.4.

Take QSRQFLSVYFYLFFLFFSFL: the amyloid nucleation score entry is “inactive”.

As for VQPVLCIVSCNRLNRQRAEM, the amyloid nucleation score was -0.498 ± 1.1.

Consider NVTGYFSSYKVVGRMESSYV, for which the amyloid nucleation score came out at 1.73 ± 0.19.

On to VYPFSLSVAYVNRLLYYTVQ, for which the amyloid nucleation score amounted to 2.14 ± 0.094.

The substance FTDRDLGNLTYDDRFDICNY had an amyloid nucleation score of -1.75 ± 0.76.

KRVFAKVTVMDHSNSG: the amyloid nucleation score entry is “inactive”.

On to KSLNDDVKLKNKGSSPSAPW, for which the amyloid nucleation score result was “inactive”.

For the origin of these results see the supplement of paper PMC12042874.
